Molecular target: N-biotinylated HapB (Aspergillus nidulans, biotin (N-biotinylated))
Assay: SPR

B1: HapC/HapE heterodimer (wild-type HapC) (complex)
chain 1: MSSTSPSKEPEVEQEPQSGEEHEQMDKEQDNQTQGQGEFEVKEQDRWLPIANVARIMKLALPENAKIAKEAKECMQECVSEFISFITSEASEKCQQEKRKTVNGEDILFAMTSLGFENYAEALKIYLSKYRETQSARGEHQNRPPSSGYAGGGPVGGAASGPSVVRAGGAAAGGAFPEASDNAGSIMNQGLDPSEQDASAYGYPPMVGQGHNGAGGESY
chain 2: MEQAQQTSGQQQGRQQPVYDTRQGGHYGASAALAAQGFAPVAELYTGTWANVNQGLQGTARDILTTYWQHVINHLESDNHDYKIHQLPLARIKKVMKADPEVKMISAEAPILFAKGCDVFITELTMRAWIHAEDNKRRTLQRSDIAAALSKSDMFDFLIDIVPREEATSHAKRSSQSAGAPAGPGGPTAAGQLPQTQHGVQHHPHHMAPPDYGALGQHPLQDQEYRQQTMYGGAVQSDPTAAYAQPQTQMFEGMYTAYPHLPPQQ
B1 was tested. Which Kd did it give?
Its Kd is 35.3 nM.
